In patent publication US9791436 (UNIVERSITY OF QUEENSLAND, dated 2017):

Target: PSA (prostate specific antigen) (UniProt P07288 25-261)
Test: cell-based or functional assay

PSA (prostate specific antigen), sequence (P07288 25-261 limits assumed): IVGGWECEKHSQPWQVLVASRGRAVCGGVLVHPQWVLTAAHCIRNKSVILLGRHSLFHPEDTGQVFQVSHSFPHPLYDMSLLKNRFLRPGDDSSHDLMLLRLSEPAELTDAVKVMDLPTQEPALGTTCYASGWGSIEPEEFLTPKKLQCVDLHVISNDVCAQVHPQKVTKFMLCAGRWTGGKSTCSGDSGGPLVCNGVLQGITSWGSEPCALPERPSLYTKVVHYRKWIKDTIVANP

B1: H6-68-AP-PSA-VHH (other)
chain: SSGSKALLKGVRDFNPISACVCLLENSSDGHSERLFGIGFGPYIIANQHLFRRNNGELTIKTMHGEFKVKNSTQLQMKPVEGRDIIVIKMAKDFPPFPQKLKFRQPTIKDRVCMVSTNFQQKSVSSLVSESSHIVHKEDTSFWQHWITTKDGQCGSPLVSIIDGNILGIHSLTHTTNGSNYFVEFPEKFVATYLDAADGWCKNWKFNADKISWGSFILWEDAPGGEHSSKLQSGAGREYVRFAPGGSGGSGGSGGSGGSGGDVQLQESGGGSVQAGGSLRLSCVASGWIYIPPCMAWFRQAPGKERERVATINPSGRTYYADSTKGRFRISQDNVKRTLYLYMNSLKPEDTATYYCAADDGTCPRMEFDDWGQGTQVTVSSGGSHHHHHH
Question: How did the “sensitivity of the PSA biosensor assay” value turn out when B1 was run?
Answer: 2 fold better than the N-terminal VHH configuration
